# According to patent US20210206856A1 (PANDION OPERATIONS, published 2021):
# T1: mouse MAdCAM expressed on cells (mouse, UniProt Q61826 22-405)
# T1 construct: whole, on cells
# T1 sequence (looked up): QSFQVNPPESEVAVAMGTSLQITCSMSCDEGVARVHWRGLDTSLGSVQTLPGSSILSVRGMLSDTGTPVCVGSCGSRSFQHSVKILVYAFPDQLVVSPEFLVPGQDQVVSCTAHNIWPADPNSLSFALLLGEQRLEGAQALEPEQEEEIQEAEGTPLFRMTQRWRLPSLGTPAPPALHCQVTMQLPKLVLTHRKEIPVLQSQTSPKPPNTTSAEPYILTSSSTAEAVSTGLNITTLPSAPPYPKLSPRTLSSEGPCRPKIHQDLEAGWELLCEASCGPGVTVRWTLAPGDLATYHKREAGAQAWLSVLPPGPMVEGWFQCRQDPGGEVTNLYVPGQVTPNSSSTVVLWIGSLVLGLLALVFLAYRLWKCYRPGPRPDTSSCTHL
# T2: human MAdCAM expressed on cells (human, UniProt Q13477 19-382)
# T2 construct: whole, on cells; also called MADCAM1
# T2 sequence (looked up): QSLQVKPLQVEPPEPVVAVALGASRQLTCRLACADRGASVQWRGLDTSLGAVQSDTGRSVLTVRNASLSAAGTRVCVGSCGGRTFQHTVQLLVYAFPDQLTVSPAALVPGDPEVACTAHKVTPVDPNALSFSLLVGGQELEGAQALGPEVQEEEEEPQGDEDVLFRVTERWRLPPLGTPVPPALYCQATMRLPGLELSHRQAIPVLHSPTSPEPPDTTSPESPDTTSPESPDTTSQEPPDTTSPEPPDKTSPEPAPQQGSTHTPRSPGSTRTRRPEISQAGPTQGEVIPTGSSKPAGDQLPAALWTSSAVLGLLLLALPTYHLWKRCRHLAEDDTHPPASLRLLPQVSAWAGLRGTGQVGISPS
# What was measured:
# [1] = biological target: T1, mouse MAdCAM expressed on cells; assay: cell binding
# [2] = biological target: T2, human MAdCAM expressed on cells; assay: cell binding
binding result [1],binding result [2],Binder
no binding,binds,MAdCAM Antibody Table 1 Clone 40 (scFv) scFv: QVQLVQSGAEVKKPGASVKVSCKASGYTFTSYGISWVRQAPGQGLEWMGIINPRGGSTIFAQKFQGRVTMTRDTSTSTVYMELSSLRSEDTAVYYCARGTRSSGWYGWFDPWGQGTLVTVSSGGGGSGGGGSGGGGSGGGGSDIQMTQSPSSLSASVGDRVTITCRASQGIGNWLAWYQQKPGKAPKLLIYAASNLETGVPSRFSGSGSGTDFTLTISSLQPEDFATYYCQQIHSYPLTFGGGTKVEIK
no binding,binds,MAdCAM Antibody Table 1 Clone 26 (scFv) scFv: QVQLVQSGAEVKKPGASVKVSCKASGYTLTTWYMYWVRQAPGQGLEWMGWINPNRGATNYAQKFQGRVTMTRDTSTSTVYMELSSLRSEDTAVYYCAKGDLWGAMDVWGQGTTVTVSSGGGGSGGGGSGGGGSGGGGSDIQMTQSPSSLSASVGDRVTITCRASDNIGSWLAWYQQKPGKAPKLLIYAASSLQSGVPSRFSGSGSGTDFTLTISSLQPEDFATYYCQQGYSTPPTFGQGTKVEIK
no binding,binds,MAdCAM Antibody Table 1 Clone 28 (scFv) scFv: QVQLVQSGAEVKKPGASVKVSCKASGYTFTDYFLHWVRQAPGQGLEWMGWMNPTSGNTGYAQKFQGRVTMTRDTSTSTVYMELSSLRSEDTAVYYCAREGEGSGFDYWGQGTLVTVSSGGGGSGGGGSGGGGSGGGGSDIQMTQSPSSLSASVGDRVTITCRASQGINSWLAWYQQKPGKAPKLLIYDASNLETGVPSRFSGSGSGTDFTLTISSLQPEDFATYYCQQSYSTPLTFGGGTKVEIK
no binding,binds,MAdCAM Antibody Table 1 Clone 43 (scFv) scFv: EVQLLESGGGLVQPGGSLRLSCAASGFTFDDFAMHWVRQAPGKGLEWVSGISGNGDSRYYADSVKGRFTISRDNSKNTLYLQMNSLRAEDTAVYYCARDASYGGNYGMDVWGQGTTVTVSSGGGGSGGGGSGGGGSGGGGSDIQMTQSPSSLSASVGDRVTITCQASQDIRNYLNWYQQKPGKAPKLLIYKASTLESGVPSRFSGSGSGTDFTLTISSLQPEDFATYYCQQANSFPLTFGPGTKVDIK
no binding,binds,MAdCAM Antibody Table 1 Clone 37 (scFv) scFv: QVQLVQSGAEVKKPGASVKVSCKASGYTFSKHFVHWVRQAPGQGLEWMGWMNPNSGNSGYAQKFQGRVTMTRDTSTSTVYMELSSLRSEDTAVYYCARGEGGYYYYGMDVWGQGTLVTVSSGGGGSGGGGSGGGGSGGGGSDIQMTQSPSSLSASVGDRVTITCRASQSISSWLAWYQQKPGKAPKLLIYAASTLQSGVPSRFSGSGSGTDFTLTISSLQPEDFATYYCQQSYSTPWTFGQGTKVEIK
no binding,binds,MAdCAM Antibody Table 1 Clone 39 (scFv) scFv: QVQLVQSGAEVKKPGASVKVSCKASGYTFTSYYMHWVRQAPGQGLEWMGWMNPNSGNTGYAQKFQGRVTMTRDTSTSTVYMELSSLRSEDTAVYYCARDLGYYDSSGYFGAFDIWGQGTTVTVSSGGGGSGGGGSGGGGSGGGGSDIQMTQSPSSLSASVGDRVTITCQSSEDISSSLNWYQQKPGKAPKLLIYAASSLQIGVPSRFSGSGSGTDFTLTISSLQPEDFATYYCQQTYSTPYTFGQGTKVEIK

# Further lines, the binder ahead of its results:
Binder,binding result [1],binding result [2]
MAdCAM Antibody Table 1 Clone 42 (scFv) scFv: QVQLVQSGAEVKKPGSSVKVSCKASGGTLSRYGVSWVRQAPGQGLEWMGGIIPIFGTTNYAQKFQGRVTITADESTSTAYMELSSLRSEDTAVYYCARDRVYYDSSGYPTWYFDLWGRGTLVTVSSGGGGSGGGGSGGGGSGGGGSEIVMTQSPATLSVSPGERATLSCRASQSVSSSYLAWYQQKPGQAPRLLIYGASTRATGIPARFSGSGSGTEFTLTISSLQSEDFAVYYCQQYGSSPITFGQGTKVEIK,no binding,binds
MAdCAM Antibody Table 1 Clone 35 (scFv) scFv: EVQLLESGGGLVQPGGSLRLSCAASGFSFSSYTMNWVRQAPGKGLEWVSFITSSSRTIYYADSVKGRFTISRDNSKNTLYLQMNSLRAEDTAVYYCARDRRGDYGDSWYFDLWGRGTLVTVSSGGGGSGGGGSGGGGSGGGGSEIVMTQSPATLSVSPGERATLSCRASQSVRNYLAWYQQKPGQAPRLLIYGASTRATGIPARFSGSGSGTEFTLTISSLQSEDFAVYYCQQYGSSPLTFGGGTKVEIK,no binding,binds
MAdCAM Antibody Table 1 Clone 32 (scFv) scFv: QVQLVQSGAEVKKPGASVKVSCKASGYTLTDYYMHWVRQAPGQGLEWMGIINPSGGSTSYAQKFQGRVTMTRDTSTSTVYMELSSLRSEDTAVYYCAREEYSSSSGYFDYWGQGTLVTVSSGGGGSGGGGSGGGGSGGGGSDIQMTQSPSSLSASVGDRVTITCRASQGISSWLAWYQQKPGKAPKLLIYAASSLQSGVPSRFSGSGSGTDFTLTISSLQPEDFATYYCQQSYSTPLTFGQGTKVEIK,no binding,binds
MAdCAM Antibody Table 1 Clone 31 (scFv) scFv: QVQLVQSGAEVKKPGASVKVSCKASGYTFTSYYMHWVRQAPGQGLEWMGIINPSGGSTSYAQKFQGRVTMTRDTSTSTVYMELSSLRSEDTAVYYCARDTGYSYGRYYYYGMDVWGQGTLVTVSSGGGGSGGGGSGGGGSGGGGSDIQMTQSPSSLSASVGDRVTITCRASQSIGRWLAWYQQKPGKAPKLLIYDASNLQSGVPSRFSGSGSGTDFTLTISSLQPEDFATYYCQQSYSIPITFGQGTKVEIK,no binding,binds
MAdCAM Antibody Table 1 Clone 36 (scFv) scFv: QVQLVQSGAEVKKPGASVKVSCKASGYTFTGHYMHWVRQAPGQGLEWMGIINPSGGSTSYAQKFQGRVTMTRDTSTSTVYMELSSLRSEDTAVYYCARDTGYSYGRYYYYGMDVWGQGTTVTVSSGGGGSGGGGSGGGGSGGGGSDIQMTQSPSSLSASVGDRVTITCRASQSIGRWLAWYQQKPGKAPKLLIYDASNLQSGVPSRFSGSGSGTDFTLTISSLQPEDFATYYCQQSYSIPITFGGGTKVEIK,no binding,binds
MAdCAM Antibody Table 1 Clone 33 (scFv) scFv: QVQLVQSGAEVKKPGASVKVSCKASGYTFTSYGISWVRQAPGQGLEWMGWMHPKSGDTGLTQKFQGRVTMTRDTSTSTVYMELSSLRSEDTAVYYCARDTPYYYYGMDVWGQGTTVTVSSGGGGSGGGGSGGGGSGGGGSDIQMTQSPSSLSASVGDRVTITCRASQSISSWLAWYQQKPGKAPKLLIYAASSLQSGVPSRFSGSGSGTDFTLTISSLQPEDFATYYCQQSYSVPITFGQGTKVEIK,no binding,binds
MAdCAM Antibody Table 1 Clone 29 (scFv) scFv: QVQLVQSGAEVKKPGASVKVSCKASGYTFTSYYMHWVRQAPGQGLEWMAWMNPNSGNTGYAQKFQGRVTMTRDTSTSTVYMELSSLRSEDTAVYYCARDYDFWSGSLGYWGQGTLVTVSSGGGGSGGGGSGGGGSGGGGSDIQMTQSPSSLSASVGDRVTITCRASQGISNYLAWYQQKPGKAPKLLIYAASSLQSGVPSRFSGSGSGTDFTLTISSLQPEDFATYYCQQSYSTPWTFGQGTKVEIK,no binding,binds
MAdCAM Antibody Table 1 Clone 38 (scFv) scFv: EVQLLESGGGLVQPGGSLRLSCAASGFTFGSYSMSWVRQAPGKGLEWVSAIGTGGGTYYADSVKGRFTISRDNSKNTLYLQMNSLRAEDTAVYYCAKGTPYYYYYGMDVWGQGTMVTVSSGGGGSGGGGSGGGGSGGGGSDIQMTQSPSSLSASVGDRVTITCRASQPLSNWLAWYQQKPGKAPKLLIYAASSLQSGVPSRFSGSGSGTDFTLTISSLQPEDFATYYCQQAISFPLTFGGGTKVEIK,no binding,binds
MAdCAM Antibody Table 1 Clone 27 (scFv) scFv: QVQLVQSGAEVKKPGASVKVSCKASGYTFTGYYIHWVRQAPGQGLEWMGWMNPNSGNTGYAQKFQGRVTMTRDTSTSTVYMELSSLRSEDTAVYYCARDPGFLGYCSGGSCYDGWFDPWGQGTLVTVSSGGGGSGGGGSGGGGSGGGGSDIQMTQSPSSLSASVGDRVTITCRASQSISSYLHWYQQKPGKAPKLLIYAASSLQSGVPSRFSGSGSGTDFTLTISSLQPEDFATYYCQQSYTAPYTFGQGTKLEIK,no binding,binds
MAdCAM Antibody Table 1 Clone 10 (scFv) scFv: QVQLVQSGAEVKKPGASVKVSCKASGYTLTTWYMYWVRQAPGQGLEWMGWINPNRGATNYAQKFQGRVTMTRDTSTSTVYMELSSLRSEDTAVYYCAKGDLWGAMDVWGQGTLVTVSSGGGGSGGGGSGGGGSGGGGSDIQMTQSPSSLSASVGDRVTITCRASDNIGSWLAWYQQKPGKAPKLLIYAASSLQSGVPSRFSGSGSGTDFTLTISSLQPEDFATYYCQQGYSTPPTFGQGTKVEIK,no binding,binds
